We go through 15 variants from the RNAGym collection of RNA variant scans (doi:10.1093/molbev/msab373).

The labels stand for the following.
B1: Azoarcus group I ribozyme (parent)
chain: GUGCCUUGCGCCGGGAAACCACGCAAGGGAUGGUGUCAAAUUCGGCGAAACCUAAGCGCCCGCCCGGGCGUAUGGCAACGCCGAGCCAAGCUUCGGCGCCUGCGCCGAUGAAGGUGUAGAGACUAGACGGCACCCACCUAAGGCAAACGCUAUGGUGAAGGCAUAGUCCAGGGAGUGGCGAAAGUCACACAAACCGG

Variants of B1 are the subject of the data set. Kind of data set: reverse-splicing fitness (ratio to wild type); higher = more active; in vitro selection; Mg2+ level not given. An outline of the steps:
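An in vitro group I ribozyme library with randomized positions was T7-transcribed and gel-purified. In triplicate, 10 pmol RNA in EPPS pH 7.5 was reacted with 50 pmoles of a 30-nt RNA substrate for 1 h at 37 °C across several added MgCl2 levels (1–48 mM), then stopped with EDTA. Products were reverse transcribed from a substrate-complementary primer, PCR-amplified and sequenced (HiSeq 4000). Fitness is a variant's read proportion after selection over that before, normalised to wild type.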
As to GUGCCUUGCGCCGGGAAACCACGCAAGGGAUGGUGUCAAAUUCGGCGAAACCUAAGCGCCCGCCCGGGCGUAUGGCAACGCCGAGCCAAGCUUCGGCGCCUGCGCCGAUGCAGGUGUAGGGACUAGACGGCACCCACCUAAGGCUAACGGUAUGGUGAAGGCAUAGUCCAGGGAGCGGCGAAAGUCACACAAACCGG [A111C A120G A145U C150G U176C], the reverse-splicing fitness amounted to 0.0169.

With GUGCCUUGCGCCGGGAAACCACGCAAGGGAUGGUGUCAAAUUCGGCGAAACCUAAGCGCCCGCCCGGGCGUAUGGCAACGCCGAGCCAAGCUUCGGCGCCUGCGCCGAUGCAGGUGUAGGGACUAGACGGCACCCACCUAAGGCUAACGGUAUGGUGAAGGCAUAGUCCAGGGAGAGGCGAAAGUCACACAAACCGG [A111C A120G A145U C150G U176A], the reverse-splicing fitness amounted to 0.00983.

Regarding GUGCCUUGCGCCGGGAAACCACGCAAGGGAUGGUGUCAAAUUCGGCGAAACCUAAGCGCCCGCCCGGGCGUAUGGCAACGCCGAGCCAAGCUUCGGCGCCUGCGCCGAUGCAGGUGUAGGGACUAGACGGCACCCACCUAAGGCUAACGGUAUGGUGAAGGCAUAGUCCAGGGAGGGGCGAAAGUCACACAAACCGG [A111C A120G A145U C150G U176G], the reverse-splicing fitness was found to be 0.00305.

Turning to GUGCCUUGCGCCGGGAAACCACGCAAGGGAUGGUGUCAAAUUCGGCGAAACCUAAGCGCCCGCCCGGGCGUAUGGCAACGCCGAGCCAAGCUUCGGCGCCUGCGCCGAUGCAGGUGUAGGGACUAGACGGCACCCACCUAAGGCUAACGAUAUGGUGAAGGCAUAGUCUAGGGAGGGGCGAAAGUCACACAAACCGG [A111C A120G A145U C150A C169U U176G], the reverse-splicing fitness was 0.0045.

As to GUGCCUUGCGCCGGGAAACCACGCAAGGGAUGGUGUCAAAUUCGGCGAAACCUAAGCGCCCGCCCGGGCGUAUGGCAACGCCGAGCCAAGCUUCGGCGCCUGCGCCGAUGCAGGUGUAGGGACUAGACGGCACCCACCUAAGGCUAACGAUAUGGUGAAGGCAUAGUCUAGGGAGCGGCGAAAGUCACACAAACCGG [A111C A120G A145U C150A C169U U176C], the reverse-splicing fitness amounted to 0.0173.

With GUGCCUUGCGCCGGGAAACCACGCAAGGGAUGGUGUCAAAUUCGGCGAAACCUAAGCGCCCGCCCGGGCGUAUGGCAACGCCGAGCCAAGCUUCGGCGCCUGCGCCGAUGCAGGUGUAGGGACUAGACGGCACCCACCUAAGGCUAACGAUAUGGUGAAGGCAUAGUCUAGGGAGAGGCGAAAGUCACACAAACCGG [A111C A120G A145U C150A C169U U176A], the reverse-splicing fitness is 0.0198.

For the variant GUGCCUUGCGCCGGGAAACCACGCAAGGGAUGGUGUCAAAUUCGGCGAAACCUAAGCGCCCGCCCGGGCGUAUGGCAACGCCGAGCCAAGCUUCGGCGCCUGCGCCGAUGCAGGUGUAGGGACUAGACGGCACCCACCUAAGGCUAACGGUAUGGUGAAGGCAUAGUCAAGGGAGAGGCGAAAGUCACACAAACCGG [A111C A120G A145U C150G C169A U176A], the reverse-splicing fitness worked out at 0.0089.

In the case of GUGCCUUGCGCCGGGAAACCACGCAAGGGAUGGUGUCAAAUUCGGCGAAACCUAAGCGCCCGCCCGGGCGUAUGGCAACGCCGAGCCAAGCUUCGGCGCCUGCGCCGAUGCAGGUGUAGGGACUAGACGGCACCCACCUAAGGCUAACGGUAUGGUGAAGGCAUAGUCAAGGGAGGGGCGAAAGUCACACAAACCGG [A111C A120G A145U C150G C169A U176G], the reverse-splicing fitness was found to be 0.00487.

Take GUGCCUUGCGCCGGGAAACCACGCAAGGGAUGGUGUCAAAUUCGGCGAAACCUAAGCGCCCGCCCGGGCGUAUGGCAACGCCGAGCCAAGCUUCGGCGCCUGCGCCGAUGCAGGUGUAGGGACUAGACGGCACCCACCUAAGGCUAACGGUAUGGUGAAGGCAUAGUCAAGGGAGCGGCGAAAGUCACACAAACCGG [A111C A120G A145U C150G C169A U176C]: the reverse-splicing fitness stood at 0.0112.

Consider GUGCCUUGCGCCGGGAAACCACGCAAGGGAUGGUGUCAAAUUCGGCGAAACCUAAGCGCCCGCCCGGGCGUAUGGCAACGCCGAGCCAAGCUUCGGCGCCUGCGCCGAUGCAGGUGUAGGGACUAGACGGCACCCACCUAAGGCUAACGGUAUGGUGAAGGCAUAGUCUAGGGAGUGGCGAAAGUCACACAAACCGG [A111C A120G A145U C150G C169U], for which the reverse-splicing fitness was 0.0209.

As for GUGCCUUGCGCCGGGAAACCACGCAAGGGAUGGUGUCAAAUUCGGCGAAACCUAAGCGCCCGCCCGGGCGUAUGGCAACGCCGAGCCAAGCUUCGGCGCCUGCGCCGAUGCAGGUGUAGGGACUAGACGGCACCCACCUAAGGCUAACGGUAUGGUGAAGGCAUAGUCAAGGGAGUGGCGAAAGUCACACAAACCGG [A111C A120G A145U C150G C169A], the reverse-splicing fitness came to 0.0153.

Turning to GUGCCUUGCGCCGGGAAACCACGCAAGGGAUGGUGUCAAAUUCGGCGAAACCUAAGCGCCCGCCCGGGCGUAUGGCAACGCCGAGCCAAGCUUCGGCGCCUGCGCCGAUGCAGGUGUAGGGACUAGACGGCACCCACCUAAGGCUAACGGUAUGGUGAAGGCAUAGUCGAGGGAGUGGCGAAAGUCACACAAACCGG [A111C A120G A145U C150G C169G], the reverse-splicing fitness amounted to 0.0203.

As for GUGCCUUGCGCCGGGAAACCACGCAAGGGAUGGUGUCAAAUUCGGCGAAACCUAAGCGCCCGCCCGGGCGUAUGGCAACGCCGAGCCAAGCUUCGGCGCCUGCGCCGAUGCAGGUGUAGGGACUAGACGGCACCCACCUAAGGCUAACGGUAUGGUGAAGGCAUAGUCGAGGGAGAGGCGAAAGUCACACAAACCGG [A111C A120G A145U C150G C169G U176A], the reverse-splicing fitness was 0.00713.

With GUGCCUUGCGCCGGGAAACCACGCAAGGGAUGGUGUCAAAUUCGGCGAAACCUAAGCGCCCGCCCGGGCGUAUGGCAACGCCGAGCCAAGCUUCGGCGCCUGCGCCGAUGCAGGUGUAGGGACUAGACGGCACCCACCUAAGGCUAACGGUAUGGUGAAGGCAUAGUCGAGGGAGGGGCGAAAGUCACACAAACCGG [A111C A120G A145U C150G C169G U176G], the reverse-splicing fitness turned out to be 0.00412.

In the case of GUGCCUUGCGCCGGGAAACCACGCAAGGGAUGGUGUCAAAUUCGGCGAAACCUAAGCGCCCGCCCGGGCGUAUGGCAACGCCGAGCCAAGCUUCGGCGCCUGCGCCGAUGCAGGUGUAGGGACUAGACGGCACCCACCUAAGGCUAACGGUAUGGUGAAGGCAUAGUCGAGGGAGCGGCGAAAGUCACACAAACCGG [A111C A120G A145U C150G C169G U176C], the reverse-splicing fitness was determined as 0.00574.
